{"source": "patent US20190002539A1", "about": "(NATIONAL CENTER FOR AIDS STD CONTROL AND PREVENTION CHINESE …, published 2019)", "binders": {"B1": {"name": "monoclonal antibody DRVIA7H+VRC01L (antibody, V domains shown)", "VH": "QVQLVESGTQFRRPGASVRLSCEASGYTFISSFIHWIRQGPGQGLEWMGWMNPRHGAVNYPRRFQGKVTMTRDTSIDTAYMELRDLRSDDTAMYFCVTSRTKDYDWDFVWGQGTLVVVSS", "VL": "EIVLTQSPGTLSLSPGETAIISCRTSQYGSLAWYQQRPGQAPRLVIYSGSTRAAGIPDRFSGSRWGPDYNLTISNLESGDFGVYYCQQYEFFGQGTKVQVDI"}}, "key": {"[1]": {"molecular_target": "HIV-1 Env of pseudovirus 398-F1 (HIV-1)", "assay": "cell-based or functional assay"}, "[2]": {"molecular_target": "HIV-1 Env of pseudovirus TRO.11 (HIV-1)", "assay": "cell-based or functional assay"}, "[3]": {"molecular_target": "HIV-1 Env of pseudovirus X2278 (HIV-1)", "assay": "cell-based or functional assay"}, "[4]": {"molecular_target": "HIV-1 Env of pseudovirus 25710 (HIV-1)", "assay": "cell-based or functional assay"}, "[5]": {"molecular_target": "HIV-1 Env of pseudovirus Ce0217 (HIV-1)", "assay": "cell-based or functional assay"}, "[6]": {"molecular_target": "HIV-1 Env of pseudovirus Ce1176 (HIV-1)", "assay": "cell-based or functional assay"}, "[7]": {"molecular_target": "HIV-1 Env of pseudovirus X1632 (HIV-1)", "assay": "cell-based or functional assay"}, "[8]": {"molecular_target": "HIV-1 Env of pseudovirus CNE55 (HIV-1)", "assay": "cell-based or functional assay"}, "[9]": {"molecular_target": "HIV-1 Env of pseudovirus CNE8 (HIV-1)", "assay": "cell-based or functional assay"}, "[10]": {"molecular_target": "HIV-1 Env of pseudovirus BJOX2000 (HIV-1)", "assay": "cell-based or functional assay"}, "[11]": {"molecular_target": "HIV-1 Env of pseudovirus CH119.10 (HIV-1)", "assay": "cell-based or functional assay"}, "[12]": {"molecular_target": "HIV-1 Env of pseudovirus 246 (HIV-1)", "assay": "cell-based or functional assay"}, "[13]": {"molecular_target": "HIV-1 Env of pseudovirus SF162 (HIV-1, UniProt P19550 32-847)", "assay": "cell-based or functional assay"}, "[14]": {"molecular_target": "HIV-1 Env of pseudovirus QH0692 (HIV-1)", "assay": "cell-based or functional assay"}, "[15]": {"molecular_target": "HIV-1 Env of pseudovirus SC422661 (HIV-1)", "assay": "cell-based or functional assay"}, "[16]": {"molecular_target": "HIV-1 Env of pseudovirus PV0.4 (HIV-1)", "assay": "cell-based or functional assay"}, "[17]": {"molecular_target": "HIV-1 Env of pseudovirus AC10 (HIV-1)", "assay": "cell-based or functional assay"}, "[18]": {"molecular_target": "HIV-1 Env of pseudovirus RHPA4259 (HIV-1)", "assay": "cell-based or functional assay"}, "[19]": {"molecular_target": "HIV-1 Env of pseudovirus REJO4541 (HIV-1)", "assay": "cell-based or functional assay"}, "[20]": {"molecular_target": "HIV-1 Env of pseudovirus TRJO4551 (HIV-1)", "assay": "cell-based or functional assay"}, "[21]": {"molecular_target": "HIV-1 Env of pseudovirus CAAN5342 (HIV-1)", "assay": "cell-based or functional assay"}, "[22]": {"molecular_target": "HIV-1 Env of pseudovirus CH110 (HIV-1)", "assay": "cell-based or functional assay"}, "[23]": {"molecular_target": "HIV-1 Env of pseudovirus CH117 (HIV-1)", "assay": "cell-based or functional assay"}, "[24]": {"molecular_target": "HIV-1 Env of pseudovirus CH181 (HIV-1)", "assay": "cell-based or functional assay"}, "[25]": {"molecular_target": "HIV-1 Env of pseudovirus CH120 (HIV-1)", "assay": "cell-based or functional assay"}, "[26]": {"molecular_target": "HIV-1 Env of pseudovirus MW965 (HIV-1)", "assay": "cell-based or functional assay"}, "[27]": {"molecular_target": "HIV-1 Env of pseudovirus ZM109F (HIV-1)", "assay": "cell-based or functional assay"}, "[28]": {"molecular_target": "HIV-1 Env of pseudovirus Du422 (HIV-1)", "assay": "cell-based or functional assay"}, "[29]": {"molecular_target": "HIV-1 Env of pseudovirus ZM249M (HIV-1)", "assay": "cell-based or functional assay"}, "[30]": {"molecular_target": "HIV-1 Env of pseudovirus CAP45 (HIV-1)", "assay": "cell-based or functional assay"}, "[31]": {"molecular_target": "HIV-1 Env of pseudovirus Q461 (HIV-1)", "assay": "cell-based or functional assay"}, "[32]": {"molecular_target": "HIV-1 Env of pseudovirus Q769 (HIV-1)", "assay": "cell-based or functional assay"}, "[33]": {"molecular_target": "HIV-1 Env of pseudovirus Q259 (HIV-1)", "assay": "cell-based or functional assay"}, "[34]": {"molecular_target": "HIV-1 Env of pseudovirus Q842 (HIV-1)", "assay": "cell-based or functional assay"}, "[35]": {"molecular_target": "HIV-1 Env of pseudovirus BJMSM2249 (HIV-1)", "assay": "cell-based or functional assay"}, "[36]": {"molecular_target": "HIV-1 Env of pseudovirus BJMSM2316 (HIV-1)", "assay": "cell-based or functional assay"}, "[37]": {"molecular_target": "HIV-1 Env of pseudovirus BJMSM2498 (HIV-1)", "assay": "cell-based or functional assay"}, "wild-type (WT) YU2 gp120": {"molecular_target": "T1, wild-type (WT) YU2 gp120 (HIV-1, UniProt P35961 32-498)", "T1 construct": "domain: gp120", "assay": "ELISA, antigen coated at 2 µg/ml"}}, "data": [{"binder": "B1", "values": [{"measurement": "IC50 in µg/ml, TZM-bl/pseudovirus neutralizing assay", "setting": "[1]", "result": 0.8, "unit": "µg/mL"}, {"measurement": "IC50 in µg/ml, TZM-bl/pseudovirus neutralizing assay", "setting": "[2]", "result": 1.18, "unit": "µg/mL"}, {"measurement": "IC50 in µg/ml, TZM-bl/pseudovirus neutralizing assay", "setting": "[3]", "result": 0.34, "unit": "µg/mL"}, {"measurement": "IC50 in µg/ml, TZM-bl/pseudovirus neutralizing assay", "setting": "[4]", "result": 2.5, "unit": "µg/mL"}, {"measurement": "IC50 in µg/ml, TZM-bl/pseudovirus neutralizing assay", "setting": "[5]", "result": 0.65, "unit": "µg/mL"}, {"measurement": "IC50 in µg/ml, TZM-bl/pseudovirus neutralizing assay", "setting": "[6]", "result": 4.08, "unit": "µg/mL"}, {"measurement": "IC50 in µg/ml, TZM-bl/pseudovirus neutralizing assay", "setting": "[7]", "result": 0.61, "unit": "µg/mL"}, {"measurement": "IC50 in µg/ml, TZM-bl/pseudovirus neutralizing assay", "setting": "[8]", "result": 1.23, "unit": "µg/mL"}, {"measurement": "IC50 in µg/ml, TZM-bl/pseudovirus neutralizing assay", "setting": "[9]", "result": 1.48, "unit": "µg/mL"}, {"measurement": "IC50 in µg/ml, TZM-bl/pseudovirus neutralizing assay", "setting": "[10]", "result": 15.9, "unit": "µg/mL"}, {"measurement": "IC50 in µg/ml, TZM-bl/pseudovirus neutralizing assay", "setting": "[11]", "result": 1.85, "unit": "µg/mL"}, {"measurement": "IC50 in µg/ml, TZM-bl/pseudovirus neutralizing assay", "setting": "[12]", "result": 1.29, "unit": "µg/mL"}, {"measurement": "IC50 in µg/ml, TZM-bl/pseudovirus neutralizing assay", "setting": "[13]", "result": 0.3, "unit": "µg/mL"}, {"measurement": "IC50 in µg/ml, TZM-bl/pseudovirus neutralizing assay", "setting": "[14]", "result": 2.03, "unit": "µg/mL"}, {"measurement": "IC50 in µg/ml, TZM-bl/pseudovirus neutralizing assay", "setting": "[15]", "result": 0.58, "unit": "µg/mL"}, {"measurement": "IC50 in µg/ml, TZM-bl/pseudovirus neutralizing assay", "setting": "[16]", "result": 1.18, "unit": "µg/mL"}, {"measurement": "IC50 in µg/ml, TZM-bl/pseudovirus neutralizing assay", "setting": "[17]", "result": 15.5, "unit": "µg/mL"}, {"measurement": "IC50 in µg/ml, TZM-bl/pseudovirus neutralizing assay", "setting": "[18]", "result": 0.34, "unit": "µg/mL"}, {"measurement": "IC50 in µg/ml, TZM-bl/pseudovirus neutralizing assay", "setting": "[19]", "result": 0.75, "unit": "µg/mL"}, {"measurement": "IC50 in µg/ml, TZM-bl/pseudovirus neutralizing assay", "setting": "[20]", "result": 1.44, "unit": "µg/mL"}, {"measurement": "IC50 in µg/ml, TZM-bl/pseudovirus neutralizing assay", "setting": "[21]", "result": 3.4, "unit": "µg/mL"}, {"measurement": "IC50 in µg/ml, TZM-bl/pseudovirus neutralizing assay", "setting": "[22]", "result": 0.15, "unit": "µg/mL"}, {"measurement": "IC50 in µg/ml, TZM-bl/pseudovirus neutralizing assay", "setting": "[23]", "result": 0.59, "unit": "µg/mL"}, {"measurement": "IC50 in µg/ml, TZM-bl/pseudovirus neutralizing assay", "setting": "[24]", "result": 0.98, "unit": "µg/mL"}, {"measurement": "IC50 in µg/ml, TZM-bl/pseudovirus neutralizing assay", "setting": "[25]", "result": 6.53, "unit": "µg/mL"}, {"measurement": "IC50 in µg/ml, TZM-bl/pseudovirus neutralizing assay", "setting": "[26]", "result": 0.2, "unit": "µg/mL"}, {"measurement": "IC50 in µg/ml, TZM-bl/pseudovirus neutralizing assay", "setting": "[27]", "result": 0.59, "unit": "µg/mL"}, {"measurement": "IC50 in µg/ml, TZM-bl/pseudovirus neutralizing assay", "setting": "[28]", "result": "> 20", "unit": "µg/mL"}, {"measurement": "IC50 in µg/ml, TZM-bl/pseudovirus neutralizing assay", "setting": "[29]", "result": 0.74, "unit": "µg/mL"}, {"measurement": "IC50 in µg/ml, TZM-bl/pseudovirus neutralizing assay", "setting": "[30]", "result": 0.84, "unit": "µg/mL"}, {"measurement": "IC50 in µg/ml, TZM-bl/pseudovirus neutralizing assay", "setting": "[31]", "result": 1.4, "unit": "µg/mL"}, {"measurement": "IC50 in µg/ml, TZM-bl/pseudovirus neutralizing assay", "setting": "[32]", "result": 0.3, "unit": "µg/mL"}, {"measurement": "IC50 in µg/ml, TZM-bl/pseudovirus neutralizing assay", "setting": "[33]", "result": "> 20", "unit": "µg/mL"}, {"measurement": "IC50 in µg/ml, TZM-bl/pseudovirus neutralizing assay", "setting": "[34]", "result": 0.18, "unit": "µg/mL"}, {"measurement": "IC50 in µg/ml, TZM-bl/pseudovirus neutralizing assay", "setting": "[35]", "result": 2.25, "unit": "µg/mL"}, {"measurement": "IC50 in µg/ml, TZM-bl/pseudovirus neutralizing assay", "setting": "[36]", "result": 0.47, "unit": "µg/mL"}, {"measurement": "IC50 in µg/ml, TZM-bl/pseudovirus neutralizing assay", "setting": "[37]", "result": 4.32, "unit": "µg/mL"}, {"measurement": "binding result", "setting": "wild-type (WT) YU2 gp120", "result": "binds"}]}]}
